Measurements published in the DeepSol protein solubility set.

Assay: soluble on expression in E. coli; label from the status in PepcDB or PDB records

Row | Sequence | soluble on expression in E. coli
1 | MSRRHSVVDAYSTVEGKIRDTMRELSALWDEVDMSEAMRLKRVDNAFTHITLLCDDMLSGEKEMIHNLKVSIREDMQNVKKMRLELEMEDFQRPAEIKDGSIALMRHLQSEVKSLETEFQTRHEDQRVLIEKICNLKKRLESDFEFEYEIHAKLNFDTDLPPCMSPATSEMISFITPTRRQAVGPKTSSPKDTQPSTSSSSRTTTPMSKRAMTPSSIASSTPSSAKKVLTRRNQFL | not soluble
2 | MSLVLYRKLKKAKSLEEIKNTFKNLTKSISSLVMRGMHFYDLSNILTEIYDYLVVKVIEMEKERFEREWGKLPSFAWVHMGSSARKEQVIATDQDNAIVHEGDGEGLSQFAESVNNALDYVGIPKCRGGYMAMNWCKSVEEWKSVFSEWFIKLTPDNLRFLSVFLDLRVIYGDEKLCKELIEHIKREHTSQSLRYLAYDATIAEPPLGLFGLRMKKEIDLKMNGIYPIVNGVRVLALEHGLIEVTNTRERLEELKEAHVMDADLAESLKETYEFLQDLRLRLQAKEVVEGKKADNVIKVSEIDRIEAFVLKEGFKVIKKFQNFLKGHYSIERGLEGHHHHHH | soluble
3 | MATNKERLFAAGALGPGSGYPGAGFPFAFPGALRGSPPFEMLSPSFRGLGQPDLPKEMASLSVETQSTSSEEMVPSSPSPPPPPRVYKPCFVCNDKSSGYHYGVSSCEGCKGFFRRSIQKNMVYTCHRDKNCIINKVTRNRCQYCRLQKCFEVGMSKEAVRNDRNKKKKEVKEEGSPDSYELSPQLEELITKVSKAHQETFPSLCQLGKYTTNSSADHRVQLDLGLWDKFSELATKCIIKIVEFAKRLPGFTGLSIADQITLLKAACLDILMLRICTRYTPEQDTMTFSDGLTLNRTQMHNAGFGPLTDLVFAFAGQLLPLEMDDTETGLLSAICLICGDRMDLEEPEKVDKLQEPLLEALRLYARRRRPSQPYMFPRMLMKITDLRGISTKGAERAITLKMEIPGPMPPLIREMLENPEMFEDDSSQPGPHPNASSEDEVPGGQGKGGLKSPA | soluble
4 | MGSDKIHHHHHHADTTDNTTTSSSTSANSGSTVQTKALSKAYVVYGAGLASEDKDTVASALGVKSNYTALTATGSDYATYLNAAGTTDASMISSVTLAPADPGTGVKVNIAKYNGSNNITEVTSQQYAMVATMAGVKDVIITVTADKSVSGESALTGVYKALAADGLTLNSQNTQAANGVLDATQPAIDSNSSDKKYPGKLMSAVGSVSSDLAKQRQNGNELATKADIEEMLQKALAKQGIANQTSSTQITNIAIALSQVQKAPVSTSKTYIKNVTNVADSLANSIGDKMASVKDFANSADAKQAENFIVQIWHNVVNFFKGLIGG | not soluble
5 | MSLRTIVFDVDDTLYDQQQPFRNAMTKIFPNVATEDMHELYLRFRHHSDETFPKVLANEWSLDFMRFFRMNETLKDLNYPGISQEEGKIFQQVYEEELDNITMHPEVTKLLDTLQEKEIPMGIITNGPTDHQFKKVKQLNIEKWVPSQNIIISQSTGFQKPEKEIFDLACNQFCMEPEHTLYVGDSYDNDIVGARNGGWHSLWFNHRSRELPSCQPASHLAEVTCFTELCPTVEKLFNLEGHHHHHH | soluble
6 | SLRVMLPNKKALEIIRKYMKIYNGKNEKDIKERLIKELKEEHVLVETEDGTYTLKAEDEEEMMHSKVGALKEAIYKFAKPSKITDLSNPRVLDLCSGMGYNAIAALHYNKNAEIDMVEICEEVLFLTLFLDIPYKEHEIIKDKVREYFLNKIGIEYKSDYDNINLYVGDARKFIIKSDKKYNVVFHDAFSPKRDPTLYTYDFLKEIYKRMEDNGVLISYSSAIPFRSALVDCGFVISEKESVGRKRGITLAYKNPNFKPNRINEVDERVIALSVIALPYRDETLSLTKDKIIEDREERREKLKEKLIKIGKYLSTKQIKKGNIPEEILKIQKEDLNSSEIIKKMRLKFFKDANIFIL | soluble
7 | MGSDKIHHHHHHDMNKLDSDYSVYTDYDNSVHFNEFSTYYLPDSILVPDNSLKANYWKDENAQNIISAVAHEMEQKGYVRTEDKEKANVGIQLSYAQQRIQMTTGGWYGGWWDAGFWGPYWGGGWYYPYPVTYSYDTGTLIMEMVDLRQPADKSNQNKLPVIWHAYASGLLYGNSHFNMQLTLNAVNQAFAQSPYLSNKQ | not soluble
8 | VGKPKMDVDLLQVDADLKKEIFDAYYNTMKTAVMTEEKLAREVEIDKVKDTVKEVYAEKFSEHEEEAQLLKEVKQIAEDLEKDVVRELITIDKIRPDGRKLDEIRH | not soluble
9 | MGESFTQAVVEGPQPKPSRFQFVPVPGEFTRGRWKCRDSYHPNAETLEFEKNKSKEEETNPDKISVFFKLRQQQQEPEPEPEPPQPPPQESTIQVTSVKSTRPDTGDPGDSEVVTTDSTESIIITRKNGVTIVRKTSNSLLLPDEKYDQIRQLSIDDFENKEKKQQVPPTPMNTPPASLAVVDTSIQSTTSETTPGHSSSRKPSKEDSSPFDASSATPAPSQLETPQQQKPTTTRHFQVEPVVLSEPSTPAPVAPAPSIETLTSTSPPVTQQLAPSLSEPTFQVIQTEESKNMSMDSVKNVVDAAALSAPAPAPLSQSDRLNHVDEVEGTTPSNVMITVSSAAAALEKKEEAAFAAAGSLDSCGIPISGGGAAAQTSAPHSTPYGTPKDTHIQQQQQPVVFEEILTANGPPPQPSSPLLPALITTTTSAPTIAPASSPIINASGSSIPAASTSGISLFPSGGVTSSLTTPSTTADTHTPIDNKIEQAMELVKTHLTYAVREEVDTLRNTIAELEYQMRESQYECTYYRQNCAPDLIEQASSFVHQQMASHQRPAARRAVSTAGIFDGSSSGGGGGQASSGASASASSAHMRNLQNQIQQMKQITPITTNTCINSTSTSTTAYTSTPTASIPAATAITTTTAPPKPSPTTSESSLITGDLGAPAGAVAQKMTTTNN | not soluble
10 | HPIFQRDGDDLHCEVPVRISQAALGDIVRVATLDGEAEIRIPAETQSGKLFRLRGKGVRSVRSRTEGDLYCRIVVETPVNLTAEQRKLLEQFEMTFAGEDARK | not soluble
11 | MGKEYPYGLLRCFVRRIGKPTDSPRMTSAPTSNQSNPAWSRDELVLALNLYLLHRNGLPGVNHPDVLALSQALNLIGNATGVSKNQSFRNANGVCMKLNNFRRWDPSYTNNGRTGLAKGNKDEQLVWLEFANDPERLAEVVAAINANVQMIPASPIDLSAADDPGFFEAEEGKVLTRVHRVRERDKKIVKRKKEEALTQHGALQCEACGFNFSQTYGADVEGVIDVHHTKPLHTLQPGDKTKLADLALLCANCHRVLHSQRKWLSVAEVKERYQANLKQIQMLEHHHHHH | soluble
12 | MSKKIRNTEVDHLFDAILTLENKEECYTFFEDVCTVNELLSISQRYEVAKMLREGKTYLDISNATGASTATISRVNRSLNYGNDGYDMVLERVLKKDE | not soluble
13 | MMTDKLNLNVLDAAFYSLEQTVVQISDRNWFDMQPSIVQDTLIAGAIQKFEFVYELSLKMMKRQLQQDAINTDDIGAYGFKDILREALRFGLIGDMSKWVAYRDMRNITSHTYDQEKAMAVYAQIDDFLIESSFLLEQLRQRNQYD | soluble
14 | MRVLVRDLKAHVGQEVELLGFLHWRRDLGRIQFLLLRDRSGVVQVVTGGLKLPLPESALRVRGLVVENAKAPGGLEVQAKEVEVLSPALEPTPVEIPKEEWRANPDTLLEYRYVTLRGEKARAPLKVQAALVRGFRRYLDRQDFTEIFTPKVVRAGAEGGSGLFGVDYFEKRAYLAQSPQLYKQIMVGVFERVYEVAPVWRMEEHHTSRHLNEYLSLDVEMGFIADEEDLMRLEEALLAEMLEEALNTAGDEIRLLGATWPSFPQDIPRLTHAEAKRILKEELGYPVGQDLSEEAERLLGEYAKERWGSDWLFVTRYPRSVRPFYTYPEEDGTTRSFDLLFRGLEITSGGQRIHRYEELLESLKAKGMDPEAFHGYLEVFKYGMPPHGGFAIGAERLTQKLLGLPNVRYARAFPRDRHRLTP | soluble
15 | MSLDVINKYGTPLKLSYLPKISSQIQKAKQWFGEAITNNNYSGTYTYCYCTKSSHFSFVLNEALKNDIHIETSSAYDIPIVRILFENNKITKATNVICNGYKRPEYTDYICDLINEGFNCTPILDNLDEITAYEKGIETSCNLGIRLATDEEPKFEFYTSRLGFRYNDVVQFYKEKIEPNPKFKLKMLHFFINTGIKDTTYYWSELSRFVHMYCTMKKINPDMDSIDIGGGWPIKTSVHFEYDYKYMADQIVKTIKKVCDEEGVPTPNIFTEFGSFTVGESGAAVYSVLGSKLQNDKEEWYMIDSSFITTLPDVWGLSQKYLLLAVNGWDKPYKKVKLGGITCDSMDYYNSEAHQNLVFMPELDEKEPTYIGFFHTGAYQESLGGYGGIQHCLVPAPKHILIDKDADGNFSYNLFAPEQTKESMLKILGYKAEGHHHHHH | soluble
16 | MGSDKIHHHHHHMRTFQYANANPSANVSPMGRTSLATSAAKARGPLNGLIAERMRQLNLSTVKDFADYAGIGRTSIHDLVRGRTTTSGTWTKPSFDTLTKLAVALDKPTHELLYLIDPEAPGANLMFDVQQVPVYIAGQVGAGPQQLWESSDVVYVERQFAENRDLIAFTVVGDSMAGGRHPIHDGDVVIVDQRVGGEVNFPVVARLKDDGHVVKRCGPAASSTAPTRTSWTLTPQSLPLTVSPTWWDASSG | not soluble
17 | MIPLSIRVPASTANVGPGFDSVGIALSLYLHVVVKEKSDKWQVIHSFEDSIPTDDKNLIVSTACKVCPSLSPHIIEVTSNIPLTRGLGSSASAIVAGIELANQLGKLNLTIDQKVQIATNFEGHPDNVAASILGGTVIGALDGKNVSVVRIESKELGVISLIPNEELNTDESRSVLPDVFPFHEAVKASAISNVLVAALCQKKWKVVGEMMERDHFHEPYRLELVPLLPSIRKCAKEFGAYGTALSGAGPSIFILTPYEKRQEIAEQLARVFTSMKVCELEIDHRGITVNKKEHIGL | not soluble
18 | MVYYIYHSAFVIEVEKSILIFDFYKFPSNKKKEKEEFFNRFIKRIDKKVYIFSTHSHSDHFNKEILTWLEMNENIKYILSDDIRIYKHKNFYFTKEGDSFELDNLKISTFGSTDLGSSFYVNTENKNIFHSGDLHFWHWEDDTPEEEKTMYDAYMVQLEKIKKLDRIDIAFVPVDPRLGVNTLEGVELFYKILKPKIIIPMHFSDDYSQMKNFIEKFKYNDDVKIIEIKDSMEKVLELEHHHHHH | not soluble
19 | MTTGTEEARIPLDPFVTDLDGESARLRAAGPLAAVELPGGVPVWAVTHHAEAKALLTDPRLVKDINVWGAWRRGEIPADWPLIGLANPGRSMLTVDGAEHRRLRTLVAQALTVRRVEHMRGRITELTDRLLDELPADGGVVDLKAAFAYPLPMYVVADLMGIEEARLPRLKVLFEKFFSTQTPPEEVVATLTELASIMTDTVAAKRAAPGDDLTSALIQASENGDHLTDAEIVSTLQLMVAAGHETTISLIVNAVVNLSTHPEQRALVLSGEAEWSAVVEETLRFSTPTSHVLIRFAAEDVPVGDRVIPAGDALIVSYGALGRDERAHGPTADRFDLTRTSGNRHISFGHGPHVCPGAALSRMEAGVALPALYARFPHLDLAVPAAELRNKPVVTQNDLFELPVRLAHHHH | soluble
20 | MVRVKICGITNLEDALFSVESGADAVGFVFYPKSKRYISPEDARRISVELPPFVFRVGVFVNEEPEKILDVASYVQLNAVQLHGEEPIELCRKIAERILVIKAVGVSNERDMERALNYREFPILLDTKTPEYGGSGKTFDWSLILPYRDRFRYLVLSGGLNPENVRSAIDVVRPFAVDVSSGVEAFPGKKDHDSIKMFIKNAKGL | soluble
21 | AHHHHHHGSKLEIRDLSVGYDKPVLERITMTIEKGNVVNFHGPNGIGKTTLLKTISTYLKPLKGEIIYNGVPITKVKGKIFFLPEEIIVPRKISVEDYLKAVASLYGVKVNKNEIMDALESVEVLDLKKKLGELSQGTIRRVQLASTLLVNAEIYVLDDPVVAIDEDSKHKVLKSILEILKEKGIVIISSREELSYCDVNENLHKYSTKIDKKD | soluble
